The RNAGym collection of RNA variant scans (doi:10.7554/elife.90254)

B1: OR4K15 (parent)
chain: GUUAACGGUCAUAGGCCAUGGAAACUAGGAGCACCAUUUCGCUGCCAGUGAAGAAAUGAACAAAGAAAAUCUGGGCCAGGCAGGCAUCAAAAGAAAUAGUCUUGCGCUCAACCAGAAAGUCUGUAAUCAUUUUAAGGGUA

Variants of: B1
Assay: self-cleavage, relative activity (ratio to wild type); higher = more cleavage; in vitro, sequencing; the parent is a self-cleaving ribozyme
For A56G A134G, the self-cleavage was 1.2. For U57C A110G, the self-cleavage was 0.1. For A55C U87C, the self-cleavage was 0.47. For U57C U72A, the self-cleavage was 0.18. U57C U72C showed a self-cleavage of 0.04. With A55G A60U the self-cleavage was 1.62. In the case of A55G A60G, the self-cleavage is reported as 1. For A56U U133C, the self-cleavage was 2.27. With A55G A135U the self-cleavage was 0.94. Work on A55G U122G yielded a self-cleavage of 2.18. Work on A55G U122A yielded a self-cleavage of 1.39. A55G U122C showed a self-cleavage of 1.2. U57A A117G gave a self-cleavage of 1.69. For A56G U124A, the self-cleavage was 0.78. Work on U57C A129G yielded a self-cleavage of 1.43. For U57C A129U, the self-cleavage was 1.47. A56U A64G gave a self-cleavage of 2.32. Variant U57C A68U has a self-cleavage of 2.04. In the case of U57G A91G, the self-cleavage is reported as 0.52. Variant A55U A118G has a self-cleavage of 1.43. In the case of A56G A62G, the self-cleavage is reported as 1.92. In the case of A56G A62C, the self-cleavage is reported as 1.26. With U57C A126G the self-cleavage was 0.4. Variant U57A A62U has a self-cleavage of 2.46. A56G U120A showed a self-cleavage of 1.19. A54G U108A gave a self-cleavage of 0.02. U57G A129G gave a self-cleavage of 1.15. A54U A92G gave a self-cleavage of 1.54. In the case of A55G A118G, the self-cleavage is reported as 1.23. For U57C A140U, the self-cleavage was 1.78. In the case of A54U U124A, the self-cleavage is reported as 0.86. Work on A56C A82G yielded a self-cleavage of 0.56. Work on U57C A89G yielded a self-cleavage of 0.75. U57A A96C gave a self-cleavage of 0.99. For A56G U70A, the self-cleavage was 1.49. For A56G U70C, the self-cleavage was 0.95. A56G C76U gave a self-cleavage of 0.14. Variant A54G U102A has a self-cleavage of 0.17. Work on A54G U102C yielded a self-cleavage of 1.41. A56G C101A gave a self-cleavage of 0.12. A56G U127C showed a self-cleavage of 0.96. A56C A125C showed a self-cleavage of 0.7. In the case of U57C U133C, the self-cleavage is reported as 1.02. U57G A117G showed a self-cleavage of 2.08. Variant A56G A68G has a self-cleavage of 1.51. Work on A56G A68U yielded a self-cleavage of 1.86. In the case of A55G U120A, the self-cleavage is reported as 1.67. Variant A55U A117G has a self-cleavage of 1.77. Work on A55U A117U yielded a self-cleavage of 0.72. Work on A54U A64U yielded a self-cleavage of 1.98. In the case of U57C, the self-cleavage is reported as 0.86. Work on U57A yielded a self-cleavage of 0.69. U57G showed a self-cleavage of 1.34. A56U U103A gave a self-cleavage of 0.25. Variant A56G G99C has a self-cleavage of 0.2. Work on A55U G137A yielded a self-cleavage of 1.23. Variant U57C U100A has a self-cleavage of 0.4. G58A A118G gave a self-cleavage of 0.52. Variant U57C U103A has a self-cleavage of 0.15. U57C U103G gave a self-cleavage of 0.02. A56G A91G gave a self-cleavage of 0.51. A56G A91U showed a self-cleavage of 1.21. Variant A54G U70C has a self-cleavage of 0.61. For A55G A116G, the self-cleavage was 0.63. Variant U57A A63U has a self-cleavage of 1.38. Variant A56G U102G has a self-cleavage of 0.89. For A56G U102C, the self-cleavage was 1.67. Work on U57A U124C yielded a self-cleavage of 0.68. A55G A59G gave a self-cleavage of 1.17. In the case of A56G U108A, the self-cleavage is reported as 0.02. A56G A135U gave a self-cleavage of 0.62. With A56G A135G the self-cleavage was 1.61. For A55G A98U, the self-cleavage was 1.21. A54G U103A showed a self-cleavage of 0.48. Work on A54G U103C yielded a self-cleavage of 0.91. Variant A55G U100A has a self-cleavage of 0.48. Variant A55G U100C has a self-cleavage of 1.93. U57C A94U showed a self-cleavage of 1.23. In the case of A56G A96G, the self-cleavage is reported as 1.68. Work on U57C A116U yielded a self-cleavage of 0.33. U57C A116G gave a self-cleavage of 0.33. In the case of A55C A59G, the self-cleavage is reported as 0.36. A55G A63U gave a self-cleavage of 1.1. A55G A63G gave a self-cleavage of 1.43.
